Measured values as given in patent publication US8663616B2, “Enzymatic peracid generation for use in oral care products” (E I du Pont de Nemours and Company, priority 2010, dated 2014).

Legend:
[1] = Peracetic acid generation from hydroxyapatite bound CE-7 perhydrolase fusions (Example 8); assay type: biochemical; details: hydroxyapatite particles exposed to 10 μM enzyme, washed; 100 mM triacetin, 100 mM H2O2, 30 min, 37° C.; no enzyme 30-118.8
Procedure: (§1) The detection of peracetic acid followed the method described in Pinkernell et. al. (Analyst, 1997, 122, 567) using colorimetric detection of 2,2′-azino-bis(3-ethylbenzothiazoline(-6-sulfonate (ABTS) oxidation by peracetic acid. Following the formation of peracetic acid with the addition of triacetin and hydrogen peroxide, 90 μL of solution was added to 10 μL of 0.1 M H3PO4 in a well plate. 50 μL of 1 M acetic acid, 50 μL of 0.5 g/L ABTS and 50 μL of 0.002 g/L of KI was added. The solution was allowed to develop for 5 min. The absorbance of the solution was measured at 405 nm using a microplate reader. The peracetic acid concentration was calculated based on a standard curve developed simultaneously using peracetic acid reagent solution.
To assess binding of these constructs to hydroxyapatite, 33 mg of hydroxyapatite particles (Macro-prep Ceramic Hydroxyapatite TYPE I, 80 μm size BioRad, Hercules, Calif.), were washed with 10 mM phosphate buffer at pH 7.2. After removing the supernatant, enzyme stock solution was added to the hydroxyapatite dispersion to a final concentration of 10 μM and incubated for 30 min in a microcentrifuge tube with gentle agitation. Each sample was centrifuged for 1 min at 10000 rpm. The supernatant was removed and additional buffer was added. The particles were resuspended and transferred to a new tube. The process was repeated two additional times. The hydroxyapatite bound enzyme activity was measured by adding a 500 μl solution containing 100 mM triacetin, 100 mM H2O2 in 100 mM phosphate buffer, pH 7.2. The solution was incubated for 30 min, at 37° C. An aliquot was removed and mixed with H3PO4 and properly diluted for detection via ABTS oxidation as described in Example 7. The experiments were performed at different day with no enzyme as control for each experiment.

[2] = Two-step bleaching of coffee-tea stained bovine enamel (Example 16); details: for Whiteness Index 0 min: two-step: 10 μM enzyme 60 min, rinsed, then 40 mM triacetin, 100 mM H2O2, pH 7.2, before step 2; for ΔWI / Whiteness Index 5 min / Whiteness Index 15 min / Whiteness Index 30 min / Whiteness Index 45 min / Whiteness Index 60 min: two-step; for ΔWI: 0 to 60 min; for Whiteness Index 5 min: 5 min in triacetin/H2O2; for Whiteness Index 15 min: 15 min in triacetin/H2O2; for Whiteness Index 30 min: 30 min in triacetin/H2O2; for Whiteness Index 45 min: 45 min in triacetin/H2O2; for Whiteness Index 60 min: 60 min in triacetin/H2O2
Procedure: Bovine enamel incisors were prepared as indicated in Example 1. The stained enamel blocks were embedded in a 48 well plate to protect the dentin backside from solution exposure. A solution of 10 μM of each enzyme in 10 mM phosphate buffer, pH 7.2 was prepared and 500 μL of solution was incubated with each enamel substrate for 60 min. The enzyme solution was removed and each well was rinsed three times with an additional 500 μL of buffer. The enamel blocks were placed in a fresh well for the whitening process. A solution with a final concentration of 40 mM triacetin, 100 mM H2O2 in 50 mM phosphate pH 7.2 buffer was freshly prepared and 500 μL of solution was added to each enamel block. Over the course of 1 hr the enamel blocks were removed and a color measurement was obtained and then each was returned to the solution in the well plate. The whiteness index for each sample was monitored.

[3] = Perhydrolase activity in solution, ABTS detection of peracetic acid (Example 7); assay type: biochemical; details: 10 μL of 0.625 μg/mL enzyme, triacetin, H2O2, pH 7.2, 5 min
Procedure: as §1
The enzyme activity in solution was measured by making a solution of 0.625 μg/mL of each enzyme in 50 mM phosphate buffer, pH 7.2. 10 μL of enzyme solution was mixed with 90 μL buffer, 30 μL of 3% triacetin in water, 30 μL of 30 mM H2O2. The solution was incubated for 5 min. A 90 μL aliquot was removed for detection via ABTS oxidation as noted above.

[4] = Retention of perhydrolase on hydroxyapatite (SDS-PAGE band strength); assay type: binding; details: relative to enzyme input = 1; for Unbound (relative band strength): 10 μM enzyme, 0.5% hydroxyapatite, pH 7.2; for HAP Particles (relative band strength): enzyme retained on particles after washes
Procedure: Perhydrolase enzymes listed in Table 6 were assessed for binding to hydroxyapatite. A dispersion of hydroxyapatite nanoparticles (Aldrich 677418) was made at 0.5% solids in 10 mM phosphate buffer at pH 7.2. Enzyme stock solution was added to the hydroxyapatite dispersion to a final concentration of 10 μM and incubated for 30 min in a microcentrifuge tube with gentle agitation. Each sample was centrifuged for 5 min at 10000 rpm. The supernatant was removed and additional buffer was added. The particles were resuspended and transferred to a new tube. The process was repeated two additional times. Samples of the original input of enzyme, the supernatant removed from the particles with each wash step and the final particles were prepared for SDS-PAGE analysis by combining 60 μL of sample, 20 μL of LDS buffer and 8 μL of reducing agent (Nu-PAGE). Samples were heated at 85° C. for 10 min. 25 μL of each sample was loaded on a 4-12% BisTris gel (Invitrogen) and run at 115 volts for 1.5 h. The gel was removed and stained with a 1:1 dilution of Simply Blue stain (Invitrogen) overnight and destained for 4 h in deionized water. The gel was analyzed and detection of enzyme in each fraction was estimated based on the presence of a band. The results of the analysis are provided in Table 7 with an indication of the relative strength of each band in the gel compared to the enzyme input (input=1) to determine the strength of binding between the hydroxyapatite surface and each enzyme.

[5] = T. maritima C277S/C277T constructs, peracetic acid when bound to bovine enamel (Example 11); assay type: biochemical; details: bovine enamel exposed to 10 μM enzyme, 4 washes; 100 mM triacetin, 100 mM H2O2, 30 min, 37° C.; no enzyme 570
Procedure: as §1
The perhydrolase enzymes were also assessed for binding to bovine enamel substrates. Enamel substrates were prepared as described in Example 2 and 3. Each enamel block was hydrated in water for overnight at room temperature (˜22° C.). The enamel blocks were then equilibrated with 10 mM potassium phosphate buffer, pH7.2, for 10 min. The enamel substrates were rinsed 3 times the buffer. The enamel wells were filled with 500 μL of 10 μM enzyme solutions which was prepared by diluting in 10 mM phosphate buffer. The samples were incubated for 30 min with slow shaking at 37° C. The non-binding enzyme was removed by washing 4 times with phosphate buffer. Then, each enamel block was embedded inside a putty filled 24-well plate, with only the enamel top surface exposed. The perhydrolase activity from enamel bound enzyme was measured as described in Example 8. 100 μL reaction mixtures (100 mM phosphate buffer, pH7.2 and 100 mM H2O2 and 100 mM triacetin) was added on top of the enamel and incubated for 30 min at 37° C. A 90 μL aliquot was removed for detection via ABTS oxidation as noted in Example 8. Each sample data point represents an average of 3 independent enamel blocks.

[6] = T. maritima C277S/C277T constructs, peracetic acid in solution (Example 11); assay type: biochemical; details: 0.5 μM enzyme, 100 mM triacetin, 100 mM H2O2, pH 7.2, 10 min, 37° C.; no enzyme 114
Procedure: as §1
Perhydrolase enzymes listed in Table 5 were assessed for enzyme activity in solution as described in Example 7. The enzyme activity in solution was measured by making a 500 μl solution of 0.5 μM of each enzyme in 100 mM triacetin, 100 mM H2O2 and 10 mM phosphate buffer, pH 7.2. The solution was incubated for 10 min, at 37° C. After the reaction was stopped by mixing an aliquot with H3PO4, a 10 μL aliquot was removed for proper dilution, and then detected via ABTS oxidation as described in Example 7.

[7] = Perhydrolase activity of enzyme bound to hydroxyapatite discs, ABTS (Example 7); assay type: biochemical
Procedure: as §1
The perhydrolase activity of the fusions once bound to HAP discs surfaces was determined with the same ABTS method. Hydroxyapatite discs (HiMed Inc, Old Bethpage, N.Y.; 5 mm dia.×1.8 mm thick) were incubated in 20 μM enzyme solution (50 mM potassium phosphate buffer pH 7.2) for 60 min followed by 6 times of washes (50 mM potassium phosphate buffer pH 7.2). The discs with enzyme adsorbed were transferred to new wells and 200 μL of phosphate buffer (10 mM pH 7.2), 30 μL of 3% triacetin (final concentration of 0.346%) and 30 μL of 30 mM H2O2 (final concentration of 3.46 mM) were added. The solution was allowed to incubate at room temperature for 5 min. 90 μL of solution was pipetted to a new well containing 10 μL of 100 mM H3PO4. 50 μL of acetic acid, 50 μL KI, 50 μL ABTS were added as described above. The solution was developed for 5 min at room temperature and read at A405 nm.

Peracetic acid (ppm) [1] [ppm] | Unbound (relative band strength) [4] | HAP Particles (relative band strength) [4] | Wash1 (relative band strength) [4] | Wash2 (relative band strength) [4] | Molecule | Whiteness Index 0 min [2] | ΔWI [2] | Whiteness Index 5 min [2] | Whiteness Index 15 min [2] | Whiteness Index 30 min [2] | Whiteness Index 45 min [2] | Whiteness Index 60 min [2] | Avg Absorbance 405 nm Background subtracted [3] | Peracetic acid (ppm) On Enamel [5] [ppm] | Peracetic acid (ppm) In Solution [6] [ppm] | Avg Absorbance Background subtract ([7]; background = no enzyme, no HAP (0.775)) | Avg Absorbance at 5 min ([7]; discs incubated in 20 μM enzyme, 6 washes, 0.346% triacetin, 3.46 mM H2O2, A405) | PAA conc μM per disc ([7]; enzyme bound to hydroxyapatite disc, 5 min, no enzyme control 1.2) [μM per disc] | activity when bound to hydroxyapatite (in words) ([7]; with addition of triacetin and hydrogen peroxide)
3666.4 | 0.5 | 0.5 | 0.0 | 0.0 | EZ-2: C277S-link1-HC263-H6 fusion protein, SEQ ID NO: 425 (protein) MAFFDLPLEELKKYRPERYEEKDFDEFWEETLAESEKFPLDPVFERMESHLKTVEAYDVTFSGYRGQRIKGWLLVPKLEEEKLPCVVQYIGYNGGRGFPHDWLFWPSMGYICFVMDTRGQGSGWLKGDTPDYPEGPVDPQYPGFMTRGILDPRTYYYRRVFTDAVRAVEAAASFPQVDQERIVIAGGSQGGGIALAVSALSKKAKALLCDVPFLCHFRRAVQLVDTHPYAEITNFLKTHRDKEEIVFRTLSYFDGVNFAARAKIPALFSVGLMDNISPPSTVFAAYNYYAGPKEIRIYPYNNHEGGGSFQAVEQVKFLKKLFEKGGPGSGGAGSPGSAGGPGSPSAQSQLPDKHSGLHERAPQRYGPEPEPEPEPIPEPPKEAPVVIEKPKPKPKPKPKPPAHDHKNQKETHQRHAAGSGGGGSPHHHHHH | −154.5 | 129.1 | −134.6 | −97.3 | −57.2 | −35.8 | −25.3 | 1.577 | 2549 | 4761 | – | – | – | –
– | 0.2 | 0.7 | 0.05 | 0.05 | EZ-5: C277S-link1-(GK)5-H6, SEQ ID NO: 428 (protein) MAFFDLPLEELKKYRPERYEEKDFDEFWEETLAESEKFPLDPVFERMESHLKTVEAYDVTFSGYRGQRIKGWLLVPKLEEEKLPCVVQYIGYNGGRGFPHDWLFWPSMGYICFVMDTRGQGSGWLKGDTPDYPEGPVDPQYPGFMTRGILDPRTYYYRRVFTDAVRAVEAAASFPQVDQERIVIAGGSQGGGIALAVSALSKKAKALLCDVPFLCHFRRAVQLVDTHPYAEITNFLKTHRDKEEIVFRTLSYFDGVNFAARAKIPALFSVGLMDNISPPSTVFAAYNYYAGPKEIRIYPYNNHEGGGSFQAVEQVKFLKKLFEKGGPGSGGAGSPGSAGGPGSGKGKGKGKGKHHHHHH | −135.8 | 93.2 | −129.8 | −97.4 | −65.1 | −49.9 | −42.7 | 1.658 | 1344 | 3956 | 1.379 | 2.154 | 49.7 | active enzymes when bound to hydroxyapatite
– | 0.8 | 0.1 | 0.05 | 0.05 | EZ-3: C277S-link2-H6, SEQ ID NO: 426 (protein) MAFFDLPLEELKKYRPERYEEKDFDEFWEETLAESEKFPLDPVFERMESHLKTVEAYDVTFSGYRGQRIKGWLLVPKLEEEKLPCVVQYIGYNGGRGFPHDWLFWPSMGYICFVMDTRGQGSGWLKGDTPDYPEGPVDPQYPGFMTRGILDPRTYYYRRVFTDAVRAVEAAASFPQVDQERIVIAGGSQGGGIALAVSALSKKAKALLCDVPFLCHFRRAVQLVDTHPYAEITNFLKTHRDKEEIVFRTLSYFDGVNFAARAKIPALFSVGLMDNISPPSTVFAAYNYYAGPKEIRIYPYNNHEGGGSFQAVEQVKFLKKLFEKGGSHHHHHH | −159.0 | 75.2 | −147.4 | −161.5 | −117.3 | −104.7 | −83.8 | 1.751 | 733 | 5187 | – | – | – | –
